T1: pig CD47 (pig, UniProt Q9GKE8 19-303)
T1 chain: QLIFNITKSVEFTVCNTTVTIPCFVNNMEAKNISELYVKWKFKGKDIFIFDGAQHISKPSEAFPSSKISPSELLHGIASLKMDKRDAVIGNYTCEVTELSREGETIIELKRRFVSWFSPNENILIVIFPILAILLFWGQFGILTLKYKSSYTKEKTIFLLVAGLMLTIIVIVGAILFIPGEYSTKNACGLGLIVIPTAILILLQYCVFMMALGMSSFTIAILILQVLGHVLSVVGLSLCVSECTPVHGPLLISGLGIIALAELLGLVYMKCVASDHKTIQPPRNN

T2: rat CD47 (rat, UniProt P97829 19-303)
T2 chain: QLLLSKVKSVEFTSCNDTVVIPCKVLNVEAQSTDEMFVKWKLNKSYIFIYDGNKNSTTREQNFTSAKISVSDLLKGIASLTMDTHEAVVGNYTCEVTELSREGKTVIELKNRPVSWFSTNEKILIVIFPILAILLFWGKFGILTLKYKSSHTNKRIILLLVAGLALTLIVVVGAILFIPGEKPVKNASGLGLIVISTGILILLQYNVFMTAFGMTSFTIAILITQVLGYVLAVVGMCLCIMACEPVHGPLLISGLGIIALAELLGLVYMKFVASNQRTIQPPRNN

T3: mouse CD47 (mouse, UniProt Q61735 19-303)
T3 chain: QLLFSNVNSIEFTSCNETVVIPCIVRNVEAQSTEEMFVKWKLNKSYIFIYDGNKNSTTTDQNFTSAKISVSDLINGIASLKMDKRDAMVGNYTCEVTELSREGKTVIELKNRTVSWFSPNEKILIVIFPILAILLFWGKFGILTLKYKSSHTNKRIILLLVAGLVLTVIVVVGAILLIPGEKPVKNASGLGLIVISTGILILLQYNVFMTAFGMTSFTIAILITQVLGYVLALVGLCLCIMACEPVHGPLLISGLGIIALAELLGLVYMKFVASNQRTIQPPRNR

B1: Clone 1.1 (hum01 IgG1 N297Q) (antibody)
heavy: QVQLQESGPGLVKPSQTLSLTCTVSGYTFTNYYVFWVRQARGQRLEWIGDINPVNGDTNFNEKFKNRVTISADKSISTAYLQWSSLKASDTAMYYCARGGYTMDYWGQGTLVTVSSASTKGPSVFPLAPSSKSTSGGTAALGCLVKDYFPEPVTVSWNSGALTSGVHTFPAVLQSSGLYSLSSVVTVPSSSLGTQTYICNVNHKPSNTKVDKKVEPKSCDKTHTCPPCPAPELLGGPSVFLFPPKPKDTLMISRTPEVTCVVVDVSHEDPEVKFNWYVDGVEVHNAKTKPREEQYQSTYRVVSVLTVLHQDWLNGKEYKCKVSNKALPAPIEKTISKAKGQPREPQVYTLPPSR
light: DIVMTQTPLSLPVTPGEPASISCRSSQSLVHSNGNTYLHWYQQKPGKAPKLLIYKVSYRFSGVPDRFSGSGSGTDFTLKISRVEAEDVGVYYCSQNTHVPRTFGQGTKVEIKRTVAAPSVFIFPPSDEQLKSGTASVVCLLNNFYPREAKVQWKVDNALQSGNSQESVTEQDSKDSTYSLSSTLTLSKADYEKHKVYACEVTHQGLSSPVTKSFNRGEC
B2: Clone 13.1 (hum13 IgG1 N297Q) (antibody)
heavy: EVQLVQSGAEVKKPGESLRISCKGSGYTFTNYYVFWIRQSPSRGLEWLGDINPVNGDTNFNEKFKNRVTITADKSTSTAYMELSSLRSEDTAVYYCARGGYTMDYWGQGTLVTVSSASTKGPSVFPLAPSSKSTSGGTAALGCLVKDYFPEPVTVSWNSGALTSGVHTFPAVLQSSGLYSLSSVVTVPSSSLGTQTYICNVNHKPSNTKVDKKVEPKSCDKTHTCPPCPAPELLGGPSVFLFPPKPKDTLMISRTPEVTCVVVDVSHEDPEVKFNWYVDGVEVHNAKTKPREEQYQSTYRVVSVLTVLHQDWLNGKEYKCKVSNKALPAPIEKTISKAKGQPREPQVYTLPPSR
light: B1 light
B3: Clone 13 (pVxK7b-037-hum13-LC / pVxK7b-037-hum13-HC) (antibody)
heavy: not shown
light: B1 light
B4: Clone 1 (pVxK7b-037-hum01-LC / pVxK7b-037-hum01-HC) (antibody)
heavy: not shown
light: B1 light

human CD47, sequence (Q08722 19-323): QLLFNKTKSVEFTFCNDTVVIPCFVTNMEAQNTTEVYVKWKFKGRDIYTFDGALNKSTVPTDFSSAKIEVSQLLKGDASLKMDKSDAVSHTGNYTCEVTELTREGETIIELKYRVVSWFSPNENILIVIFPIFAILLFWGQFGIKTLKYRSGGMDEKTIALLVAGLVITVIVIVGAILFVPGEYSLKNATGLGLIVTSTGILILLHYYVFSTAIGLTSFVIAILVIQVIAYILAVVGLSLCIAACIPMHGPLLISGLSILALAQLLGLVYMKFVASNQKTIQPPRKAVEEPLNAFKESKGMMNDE

One experiment has as its target human CD47 (human, UniProt Q08722 19-323). Nature of the experiment: FACS binding; human RBCs. For orientation: A flow cytometer gives signals particle by particle.
On to B1, for which the response was half-maximal at 0.216 µg/mL (EC50).

In the case of B2, the concentration for a half-maximal effect (EC50) – broadly, the concentration at which the effect is half-maximal – was found to be 0.163 µg/mL.

The molecule B3 yielded an EC50 of 0.12 µg/mL.

On to B4, for which the EC50 worked out at 0.184 µg/mL.

A further experiment concerns the target T1, pig CD47. Nature of the experiment: FACS binding; porcine RBCs.
On to B1, for which a half-maximal response (EC50) required 0.0309 µg/mL.

For the molecule B2, the EC50 stood at 0.031 µg/mL.

In the case of B3, the EC50 was found to be 0.0152 µg/mL.

On to B4, for which the EC50 came out at 0.014 µg/mL.

The next experiment concerns the target T2, rat CD47. Kind of experiment: FACS binding; rat RBCs.
On to B1, for which a half-maximal effect (EC50) was put at 0.258 µg/mL.

Regarding B2, the midpoint of the response, the EC50, lay at 0.0835 µg/mL.

In turn, B3 yielded an EC50 of 0.0461 µg/mL.

B4 displayed an EC50 of 0.0479 µg/mL.

The target of another experiment is T3, mouse CD47. Nature of the experiment: FACS binding; mouse RBCs.
As for B1, the EC50 amounted to 0.265 µg/mL.

For B2, the EC50 was 0.0673 µg/mL.

Molecule B3 had an EC50 of 0.0418 µg/mL.

For the molecule B4, the EC50 was 0.0657 µg/mL.
